Test results from publication PMC6405950, “Structure-function relationship of a citrus salicylate methylesterase and role of salicylic acid in citrus canker resistance” (Scientific Reports, 2019).
Substitutions are numbered along the chain they refer to. Names may count otherwise.

Key:
CsMES1 = target: T1, CsMES1 (Citrus sinensis, UniProt A0A067GV78); experiment: ITC; also esterase inhibition (IC50 […] at […] MeSA); type: binding
T1 construct: gene CISIN_1g024065mg; recombinant CsMES1 (KDO79352) from pET28a in E. coli
T1 sequence (A0A067GV78 1-267): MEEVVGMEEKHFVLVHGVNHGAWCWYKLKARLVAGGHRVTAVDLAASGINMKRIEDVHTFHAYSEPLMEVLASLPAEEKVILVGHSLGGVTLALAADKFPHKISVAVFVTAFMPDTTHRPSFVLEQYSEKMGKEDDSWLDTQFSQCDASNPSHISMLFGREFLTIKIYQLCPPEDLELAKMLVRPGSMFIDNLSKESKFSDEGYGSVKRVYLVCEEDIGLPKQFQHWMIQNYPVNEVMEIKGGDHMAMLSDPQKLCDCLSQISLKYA

CsMES1 V18A = target: T2, CsMES1 V18A (Citrus sinensis, UniProt A0A067GV78, V18A); experiment: biochemical; type: binding
T2 construct: gene CISIN_1g024065mg; recombinant CsMES1 (KDO79352) from pET28a in E. coli
T2 sequence (A0A067GV78 1-267 V18A): T1 sequence (A0A067GV78 1-267) with V18A

CsMES1 V18S = target: T3, CsMES1 V18S (Citrus sinensis, UniProt A0A067GV78, V18S); experiment: biochemical; type: binding
T3 construct: gene CISIN_1g024065mg; optimized CsMES1 V18S synthetic gene in pET28a, recombinant from E. coli
T3 sequence (A0A067GV78 1-267 V18S): T1 sequence (A0A067GV78 1-267) with V18S

[1] = target: Citrus sinensis salicylate methylesterase CsMES1 (recombinant, wild type) (Citrus sinensis); experiment: SEC; analytical gel filtration on Superdex 75 10/300 in SEC buffer (137 mM NaCl, 10 mM Na2HPO4, 2.7 mM KCl, 2 mM KH2PO4, pH 7.5); mass estimated from standards (bovine serum albumin, ovalbumin, lysozyme)
[2] = substrate: COC(=O)c1ccccc1O; experiment: MeSA esterase kinetics, SA fluorescence (Km); type: biochemical, Citrus sinensis; details: active site

`O=C(c1ccccc1)C(F)(F)F` [TriFA, 2,2,2-Trifluoroacetophenone] was tested, and the Kd (CsMES1) was 7.1 µM, the Kd (CsMES1 V18A) was about 300 nM and the Kd (CsMES1 V18S) was about 300 nM.

For “Citrus sinensis salicylate methylesterase CsMES1 (recombinant, wild type) (enzyme)”, the stoichiometry N [1] was 2.

B1: CsMES1 (Citrus sinensis) (protein)
chain: T1 sequence (A0A067GV78 1-267)
notes: recombinant CsMES1 (KDO79352) from pET28a in E. coli
Work on B1 yielded a Km [2] of 48.9 ± 15.63 µM and a kcat [2] of 0.38 ± 0.06 s⁻¹.

B2: CsMES1 V18S (Citrus sinensis; V18S) (protein)
chain: T1 sequence (A0A067GV78 1-267) with V18S
notes: optimized CsMES1 V18S synthetic gene in pET28a, recombinant from E. coli
B2 was tested, and the Km [2] was 16.1 ± 0.23 µM.

B3: CsMES1 V18A (Citrus sinensis; V18A) (protein)
chain: T1 sequence (A0A067GV78 1-267) with V18A
notes: as for B1
With B3 the Km [2] was 11.7 ± 0.97 µM.
